Reference: US11732029B2, “Methods and compositions for the treatment of wounds” (The University of Chicago, priority 2017, dated 2023)

Experiments:
human lung fibroblasts = assay: Cell adhesion assay on vWF HBD coated plates; assay type: cell-based; conditions: 1 μg/mL vWF HBD coated plates
Procedure: Cell adhesion assays were performed using starved human lung fibroblasts (Lonza) in FGM-2 medium (Lonza) with or without 5 mM EDTA. Cells were plated at 3000 cells/well on 1 μg/mL vWF HBD pre-coated 96-well plates (non-tissue culture treated, Greiner Bio-one) and incubated for 30 min at 37° C. Then, the medium was removed, and wells were further washed three times with new FGM-2 medium. Cell numbers were quantified using a CyQUANT assay (Invitrogen).

VEGF-A121 = target: T1, VEGF-A121 (Homo sapiens, UniProt P15692); assay: vWF binding to recombinant GFs (ELISA); set-up: All GFs and chemokines were purchased in their mature forms; purchased PeproTech; host or cells: Escherichia coli; conditions: non-binding reference
T1 sequence (P15692 27-147 isoform P15692-9 limits assumed): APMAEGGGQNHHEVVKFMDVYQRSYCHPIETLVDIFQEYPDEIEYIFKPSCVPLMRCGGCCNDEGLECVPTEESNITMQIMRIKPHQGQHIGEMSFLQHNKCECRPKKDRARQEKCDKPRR
Procedure: (§1) ELISA tests were performed as previously reported1. In brief, ELISA plates (med-binding, Greiner Bio-One) were coated with 50 nM GFs at 37° C. for 2 hrs. After blocking with 2% BSA solution containing PBS-T, 1 μg/mL of plasma-derived vWF (EMD Millipore) was added. Bound vWF was detected with 1 μg/mL of rabbit anti-human vWF antibody (Sino Biological). Then, HRP conjugated goat anti-rabbit antibody (Jackson ImmunoResearch) was added. After 60 min of incubation, 50 μL TMB substrate (Sigma-Aldrich) was added. The reaction was stopped by adding 25 μL of 2N H2SO4. Subsequently, the absorbance at 450 nm was measured and subtracted the absorbance at 570 nm.

PlGF-2 = target: T2, PlGF-2 (Homo sapiens, UniProt P49763); assay: vWF binding to recombinant GFs (ELISA); set-up: All GFs and chemokines were purchased in their mature forms; purchased PeproTech; host or cells: Escherichia coli; conditions: VEGF-A121 signal as baseline
T2 sequence (P49763 19-170 isoform P49763-3 limits assumed): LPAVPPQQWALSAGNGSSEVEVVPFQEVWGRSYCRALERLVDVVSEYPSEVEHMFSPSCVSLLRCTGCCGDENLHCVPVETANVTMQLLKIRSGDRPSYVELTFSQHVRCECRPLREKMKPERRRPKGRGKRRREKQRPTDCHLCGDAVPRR
Procedure: as §1

BMP-2 = target: T3, BMP-2 (Homo sapiens, UniProt P12643); assay: vWF binding to recombinant GFs (ELISA); set-up: All GFs and chemokines were purchased in their mature forms; purchased PeproTech; host or cells: Escherichia coli; conditions: VEGF-A121 signal as baseline
T3 sequence (P12643 283-396): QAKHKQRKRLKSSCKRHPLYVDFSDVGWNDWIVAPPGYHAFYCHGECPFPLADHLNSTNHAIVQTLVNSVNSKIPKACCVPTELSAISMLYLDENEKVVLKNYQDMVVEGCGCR
Procedure: as §1

FGF-2 = FGF-2 (Homo sapiens, UniProt P09038); assay: vWF binding to recombinant GFs (ELISA); set-up: All GFs and chemokines were purchased in their mature forms; purchased PeproTech; host or cells: Escherichia coli; conditions: VEGF-A121 signal as baseline
FGF-2, sequence (P09038 143-288): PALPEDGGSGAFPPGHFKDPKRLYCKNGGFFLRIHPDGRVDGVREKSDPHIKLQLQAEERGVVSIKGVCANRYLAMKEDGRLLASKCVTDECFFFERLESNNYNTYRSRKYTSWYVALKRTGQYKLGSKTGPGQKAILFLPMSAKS
Procedure: as §1

PDGF-CC = target: T4, PDGF-CC (Homo sapiens, UniProt Q9NRA1); assay: vWF binding to recombinant GFs (ELISA); conditions: VEGF-A121 signal as baseline
T4 construct: All GFs and chemokines were purchased in their mature forms; purchased PeproTech; host or cells: Escherichia coli
T4 sequence (Q9NRA1 235-345 limits assumed): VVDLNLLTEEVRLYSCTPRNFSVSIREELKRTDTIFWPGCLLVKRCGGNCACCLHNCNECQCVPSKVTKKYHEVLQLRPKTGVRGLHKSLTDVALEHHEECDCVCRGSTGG
Procedure: as §1

PDGF-DD = target: T5, PDGF-DD (Homo sapiens, UniProt Q9GZP0); assay: vWF binding to recombinant GFs (ELISA); conditions: VEGF-A121 signal as baseline
T5 construct: All GFs and chemokines were purchased in their mature forms; purchased PeproTech; host or cells: eukaryotic cells (not further specified)
T5 sequence (Q9GZP0 250-370 limits assumed): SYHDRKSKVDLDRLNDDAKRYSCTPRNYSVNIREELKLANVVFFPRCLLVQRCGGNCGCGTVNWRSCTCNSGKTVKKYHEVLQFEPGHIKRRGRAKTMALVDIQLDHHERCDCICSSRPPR
Procedure: as §1

β-NGF = target: T6, β-NGF (Homo sapiens, UniProt P01138); assay: vWF binding to recombinant GFs (ELISA); conditions: VEGF-A121 signal as baseline
T6 construct: All GFs and chemokines were purchased in their mature forms; purchased PeproTech; host or cells: Escherichia coli
T6 sequence (P01138 122-241, species assumed): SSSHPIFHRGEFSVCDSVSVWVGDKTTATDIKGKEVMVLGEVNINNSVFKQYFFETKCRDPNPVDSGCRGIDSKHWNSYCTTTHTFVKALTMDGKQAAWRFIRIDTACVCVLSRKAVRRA
Procedure: as §1

VEGF-A = assay: vWF binding to VEGF-A in human serum (sandwich ELISA, immunoprecipitation and Western blotting); conditions: two lots of pooled serum from healthy donors
Procedure: One mL of human serum was immunoprecipitated with 10 μg of monoclonal rabbit anti-human vWF antibody (SinoBiological) or control rabbit IgG (EMD Millipore) and 50 μL of protein G-agarose (Thermo Fisher Scientific) overnight at 4° C. The resulting pellet was dissolved in Laemmli buffer and subjected to Western blot analysis. Western blot analysis was performed after SDS-PAGE (4-20% gradient gel, Bio-Rad) and transfer onto MS nitrocellulose membranes (Membrane Solutions). GFs were detected using 1 μg/mL biotinylated antibodies for human VEGF-A (R & D Systems), followed by incubation with HRP conjugated streptavidin (R & D Systems) at 1:200 dilutions. The proteins were detected and visualized with the ECL Plus Western Blotting Detection System (GE Healthcare).
The study was approved by the ethics committees of the Hammersmith, Queen Charlotte's, and Royal Marsden hospitals; informed consent was obtained from all individuals in accordance with the Declaration of Helsinki. ELISA plates (med-binding) were coated with 10 μg/mL rabbit monoclonal anti-human vWF antibody (clone: 111, SinoBiological). […] The antibodies were detected by streptavidin-HRP (R & D Systems). Color development and the absorbance measurement were done as described above.

PDGF-BB = target: T7, PDGF-BB (Homo sapiens, UniProt P01127); assay: Surface plasmon resonance, vWF against GF; conditions: SPR; vWF immobilized; two estimated binding sites, heterogeneous ligand-parallel reaction fit; read-out: lowest KD value for PDGF-BB
T7 construct: All growth factors (GFs) and chemokines were purchased in their mature forms; purchased PeproTech; host or cells: Escherichia coli
T7 sequence (P01127 82-190 limits assumed): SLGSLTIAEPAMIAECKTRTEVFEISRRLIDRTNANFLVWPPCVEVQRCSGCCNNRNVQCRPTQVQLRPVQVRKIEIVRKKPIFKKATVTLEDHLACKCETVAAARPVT
Procedure: SPR assays were performed as described previously2. In brief, measurements were made with a Biacore X100 SPR system or Biacore 3000 SPR system (GE Healthcare). Plasma-derived vWF was immobilized via amine coupling on a C1 chip (GE Healthcare) for 2000 resonance units (RU) according to the manufacturer's instructions. Recombinant human VEGF-A165, VEGF-A121, or PDGF-BB was flowed at increasing concentrations in the running buffer at 30 μL/min. The sensor chip was regenerated with glycine at pH 2 for every cycle. Specific binding of GFs to vWF was calculated automatically using the response to a non-functionalized channel as a reference. Binding curves were fitted using BIAevalution software (GE Healthcare). vWF-VEGF-A165 binding results were fitted with Langmuir binding kinetics (1:1 binding with drifting baseline Rmax local). vWF-PDGF-BB binding results were fitted with heterogeneous ligand-parallel reaction.

YIGLKDRKRPSELRRIASQVKYAC [vWF HBD]
fibroblast attachment with EDTA (human lung fibroblasts; 5 mM EDTA): inhibited | fibroblast attachment (human lung fibroblasts; 30 min, without EDTA): significantly enhanced fibroblast attachment

vWF: human plasma-derived von Willebrand factor (EMD Millipore)
vWF binding to VEGF-A121 (VEGF-A121): not | vWF binding to PlGF-2 (PlGF-2): bound | vWF binding to BMP-2 (BMP-2): strong binding | vWF binding to FGF-2 (FGF-2): bound | vWF binding to PDGF-CC (PDGF-CC): bound | vWF binding to PDGF-DD (PDGF-DD): bound | vWF binding to β-NGF (β-NGF): relevant binding | vWF binding to VEGF-A in pooled human serum (VEGF-A): binds to VEGF-A | Kd (PDGF-BB): 24 nM
